Assay results published in the supplement of paper PMC10126150.
± gives the standard deviation of the averaged measurements.

Test system: ATP
Assay: switch fluorescence ratio, 500 uM ATP over buffer (Cy3 cluster intensity, sum of 5 cycles each) (fold (ratio)); higher = stronger signal-on switching upon ATP binding; sequences stand for … in TCGTCGGCAGCGTCAGATGTGTATAAGAGACAGTTTTTTTTTTTTTTTTTTTTTTTTT…TC
Conditions: aptamer strand: ATP DNA aptamer (quencher-CACCTGGGGGAGTATTGCGGAGGAAGG + anchor), 100 nM annealed; ATP concentration: 500 uM
Method in brief: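 Cy3-labelled switching-strand clusters on a modified Illumina MiSeq flow-cell were annealed to 100 nM quencher-labelled ATP aptamer, imaged in selection buffer, then imaged after 15 min with 500 uM ATP at 22 °C. Five buffer/ATP cycles ran, with NaOH stripping and re-annealing between them. The fluorescence ratio is summed target-cycle over summed buffer-cycle Cy3 intensity per cluster, averaged per switch-domain sequence. Clusters outside 100-1000 RFU were excluded.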
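Also: ATP exposure 15 min at 22 °C before imaging.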

GGGTTTATGA
switch fluorescence ratio: 0.98 ± 0.04

GTTTGTTTGT
switch fluorescence ratio: 0.995 ± 0.019

CAGTCGACTG
switch fluorescence ratio: 1.01 ± 0.019

ATAAGCGCGT
switch fluorescence ratio: 0.999 ± 0.017

TAAGGGGATG
switch fluorescence ratio: 0.99 ± 0.011

GGGTAGGAGG
switch fluorescence ratio: 0.982 ± 0.013

TTGTTTACTT
switch fluorescence ratio: 1.04 ± 0.061

CCGTTGAGGG
switch fluorescence ratio: 1.01 ± 0.086

AGTTGAAGTT
switch fluorescence ratio: 1.02 ± 0.039

TGCGGATATG
switch fluorescence ratio: 0.982 ± 0.023

ATTTAATTCG
switch fluorescence ratio: 1.01 ± 0.022

GCGCGGTGGC
switch fluorescence ratio: 1.09 ± 0.015

TGGTTGTTCC
switch fluorescence ratio: 1.03 ± 0.025

ATTCAATTTT
switch fluorescence ratio: 0.996 ± 0.051

TTGTTCATTT
switch fluorescence ratio: 0.994 ± 0.012

GAGGGCTGAG
switch fluorescence ratio: 0.985 ± 0.02

GGTGTGCGGA
switch fluorescence ratio: 1.02 ± 0.024

TTAGAGGTTG
switch fluorescence ratio: 1.13 ± 0.21

GGTTACTAAG
switch fluorescence ratio: 1.01 ± 0.017

GAAGAATGTG
switch fluorescence ratio: 1.01 ± 0.0082

AAAGAAACTC
switch fluorescence ratio: 1.47 ± 0.7

CTCCGATGTG
switch fluorescence ratio: 1.57 ± 0.061

AAGAAAGTCG
switch fluorescence ratio: 0.9998 ± 0.0052

ATATTTTAAG
switch fluorescence ratio: 0.994 ± 0.034

GGGAATAGCT
switch fluorescence ratio: 0.999 ± 0.03

TGGGGATGTA
switch fluorescence ratio: 0.976 ± 0.014

CGCTTCTAGG
switch fluorescence ratio: 1.04 ± 0.024

AGGTCACGGC
switch fluorescence ratio: 1 ± 0.034

TTTTATTTGC
switch fluorescence ratio: 1.01 ± 0.024

TGGGTGGCGA
switch fluorescence ratio: 1.02 ± 0.043

TGGCGGACGT
switch fluorescence ratio: 1 ± 0.0081

GGGCGCCATC
switch fluorescence ratio: 1.01 ± 0.016

TAGGAAATGT
switch fluorescence ratio: 1.07 ± 0.087

GATCGCTTGG
switch fluorescence ratio: 1.04 ± 0.036

TTTTAGGCCC
switch fluorescence ratio: 1.09 ± 0.073

AAAGTATTAA
switch fluorescence ratio: 1.014 ± 0.0026

TGTGGTGGGC
switch fluorescence ratio: 0.967 ± 0.0012

TTCCACGCGG
switch fluorescence ratio: 1.268 ± 0.0091

AAAGCCGATG
switch fluorescence ratio: 1 ± 0.012

TCGGTCAAGG
switch fluorescence ratio: 0.949 ± 0.02

GAGGGTAGAG
switch fluorescence ratio: 1.01 ± 0.042

TTTTGATGAT
switch fluorescence ratio: 1.02 ± 0.013

AGGGTATTGT
switch fluorescence ratio: 1.02 ± 0.075

TCAACGAGTA
switch fluorescence ratio: 1.029 ± 0.0061

ATAGGAGTGC
switch fluorescence ratio: 1.01 ± 0.023

TCGGGTATGG
switch fluorescence ratio: 1.01 ± 0.042

ATGAATGAAC
switch fluorescence ratio: 1.03 ± 0.063

ATATGAGGCG
switch fluorescence ratio: 1.05 ± 0.042

TAGGAGGCGC
switch fluorescence ratio: 0.937 ± 0.064

GAAATTGCAT
switch fluorescence ratio: 0.996 ± 0.02

TAGAAAAATG
switch fluorescence ratio: 0.991 ± 0.029

GGAAGGGGCT
switch fluorescence ratio: 1.08 ± 0.12

GGGGGGAGGA
switch fluorescence ratio: 1.01 ± 0.056

TAAGTACGTG
switch fluorescence ratio: 1.18 ± 0.035

TGTGCGGGGT
switch fluorescence ratio: 0.974 ± 0.012

CGGGTAGGGT
switch fluorescence ratio: 0.998 ± 0.039

AGAGTATCTA
switch fluorescence ratio: 0.962 ± 0.048

ATCGTGTGGT
switch fluorescence ratio: 0.9829 ± 0.0092

GAAGTAGTGG
switch fluorescence ratio: 1.01 ± 0.014

GGGGTTCCTC
switch fluorescence ratio: 0.9919 ± 0.0096

GTCAGAGTGG
switch fluorescence ratio: 0.991 ± 0.024

GTAGGCAAGA
switch fluorescence ratio: 1.03 ± 0.071

CGGGGAGGTG
switch fluorescence ratio: 1.1 ± 0.087

TTTAATTGTG
switch fluorescence ratio: 0.9891 ± 0.0082

TATGTTTTGA
switch fluorescence ratio: 0.994 ± 0.033

TTAGTCATGC
switch fluorescence ratio: 1.09 ± 0.12

TCGTCAAATT
switch fluorescence ratio: 0.991 ± 0.067

CGACAAAAAT
switch fluorescence ratio: 1.89 ± 1

GGGGAAACGA
switch fluorescence ratio: 0.9987 ± 0.0015

TGTCAGTGCG
switch fluorescence ratio: 0.97 ± 0.042

GTATGTCGAG
switch fluorescence ratio: 0.988 ± 0.014

GGTAGTGGGA
switch fluorescence ratio: 1 ± 0.046

GGAAGAAGAT
switch fluorescence ratio: 0.982 ± 0.033

CTGCGTAGGG
switch fluorescence ratio: 1.04 ± 0.029

TTGGTGGGTT
switch fluorescence ratio: 0.994 ± 0.04

AAGCAGTCA
switch fluorescence ratio: 1.01 ± 0.038

AAGGAAGAGG
switch fluorescence ratio: 0.984 ± 0.064

TTTGTTAAAA
switch fluorescence ratio: 1.04 ± 0.061

ATTGTCTTGA
switch fluorescence ratio: 0.9688 ± 0.0015

GGGCGAAATG
switch fluorescence ratio: 1.32 ± 0.28

CCGGGTAGTA
switch fluorescence ratio: 1.12 ± 0.11

TTGCGTAGTT
switch fluorescence ratio: 1.01 ± 0.029

GGCTTGGGTT
switch fluorescence ratio: 1.01 ± 0.039

ATTTAGGTAG
switch fluorescence ratio: 1.02 ± 0.024

AGTTTGAGGT
switch fluorescence ratio: 0.995 ± 0.023

ATCGCCGGGG
switch fluorescence ratio: 1.02 ± 0.045

AGATAACTCA
switch fluorescence ratio: 1.02 ± 0.048

GCTTGACG
switch fluorescence ratio: 1.004 ± 0.01

ATCATGGGGT
switch fluorescence ratio: 0.984 ± 0.041

GAATTTTCG
switch fluorescence ratio: 1.009 ± 0.0097

ATTTCGGGTT
switch fluorescence ratio: 1.11 ± 0.28

AGGAGGTGGG
switch fluorescence ratio: 0.981 ± 0.017

CTGGGAGATT
switch fluorescence ratio: 1.02 ± 0.039

GATTGGTGTT
switch fluorescence ratio: 0.956 ± 0.025

CTCGGGGGCT
switch fluorescence ratio: 0.98 ± 0.027

TTAAAAAAAG
switch fluorescence ratio: 1.01 ± 0.019

TGATGGTTTA
switch fluorescence ratio: 0.996 ± 0.03

TGGAGGGCTA
switch fluorescence ratio: 0.97 ± 0.032

TTTTGATTTA
switch fluorescence ratio: 1 ± 0.053

AGAAAAATGC
switch fluorescence ratio: 1.04 ± 0.088

TCGGGTCATG
switch fluorescence ratio: 1.04 ± 0.04

CGAGGCAAGT
switch fluorescence ratio: 5.07 ± 1.3

GAAAAAGATT
switch fluorescence ratio: 0.999 ± 0.017

GGCAGAAAAA
switch fluorescence ratio: 0.9949 ± 0.0018

TACGTTAGTA
switch fluorescence ratio: 1.02 ± 0.033

TTAAGAGGTT
switch fluorescence ratio: 0.9708 ± 0.0065

ATTATTGGTA
switch fluorescence ratio: 0.987 ± 0.012

GACAGGGATG
switch fluorescence ratio: 1.02 ± 0.039

ATTTGAGCAG
switch fluorescence ratio: 1.01 ± 0.011

AATTATAGTT
switch fluorescence ratio: 0.99268 ± 5.5e-05

GGCTATTTTG
switch fluorescence ratio: 0.999 ± 0.073

CGGAGAGGGT
switch fluorescence ratio: 1 ± 0.029

AAGGGGAGTC
switch fluorescence ratio: 1.01 ± 0.0044

TTTTTATACT
switch fluorescence ratio: 1.02 ± 0.027

TCATGAACAC
switch fluorescence ratio: 1.01 ± 0.05

GCATGCTGGT
switch fluorescence ratio: 1.01 ± 0.024

TTATTGAAGC
switch fluorescence ratio: 0.983 ± 0.028

GCACCAAGAA
switch fluorescence ratio: 1.03 ± 0.014

GCGGTAGTTT
switch fluorescence ratio: 0.9974 ± 0.0066

GATTATAGAT
switch fluorescence ratio: 1 ± 0.015

TGATGCAATT
switch fluorescence ratio: 1.36 ± 0.24

TGGTCTAGGT
switch fluorescence ratio: 1.01 ± 0.028

GTTAGGGGCG
switch fluorescence ratio: 0.982 ± 0.013

GCGGTTGCGT
switch fluorescence ratio: 0.971 ± 0.057

TGATGGAAGT
switch fluorescence ratio: 0.986 ± 0.031

ATCAGGGTGG
switch fluorescence ratio: 0.987 ± 0.032

CGAACTGCGT
switch fluorescence ratio: 1.02 ± 0.034

TATGAATATT
switch fluorescence ratio: 0.985 ± 0.027

GCCAGGGGGA
switch fluorescence ratio: 1.09 ± 0.12

CGCAGAGTGG
switch fluorescence ratio: 1.01 ± 0.018

AGAGAGAAAG
switch fluorescence ratio: 0.97 ± 0.025

TTGGTTGGCG
switch fluorescence ratio: 0.992 ± 0.041

TTGGGTGAGG
switch fluorescence ratio: 0.98 ± 0.028

GACCATTGTC
switch fluorescence ratio: 0.99 ± 0.063

TCGAAGATGT
switch fluorescence ratio: 0.996 ± 0.019

GGCCCGTACT
switch fluorescence ratio: 1.04 ± 0.042

ACTACCGGCG
switch fluorescence ratio: 1.09 ± 0.022

GGGGGTGCTT
switch fluorescence ratio: 1.03 ± 0.056

GAAGGAAAAG
switch fluorescence ratio: 0.992 ± 0.099

TTTGCACAGC
switch fluorescence ratio: 0.997 ± 0.051

CGTACAGCAG
switch fluorescence ratio: 1.01 ± 0.054

TGCTACAAGG
switch fluorescence ratio: 1.03 ± 0.011

AGCAAGGGGG
switch fluorescence ratio: 1.09 ± 0.11

CGTAGACGAA
switch fluorescence ratio: 0.974 ± 0.0094

CACGACTTCC
switch fluorescence ratio: 2.27 ± 0.12

GTATTTAAAT
switch fluorescence ratio: 0.9855 ± 0.0018

AAAAAATCGG
switch fluorescence ratio: 1 ± 0.019

ATCGGTTCGG
switch fluorescence ratio: 0.9934 ± 0.0053

TATCAAAGAT
switch fluorescence ratio: 1 ± 0.02

ATGTATTCGA
switch fluorescence ratio: 0.996 ± 0.027

ACGTTCCGAG
switch fluorescence ratio: 2.54 ± 0.32

GGGGGCCCGA
switch fluorescence ratio: 0.9925 ± 0.0076

ACAAGCGTTT
switch fluorescence ratio: 1.01 ± 0.036

TCGGATAGCT
switch fluorescence ratio: 1.02 ± 0.014

CAGGTCTTGC
switch fluorescence ratio: 1 ± 0.015

TCGGCTTTGG
switch fluorescence ratio: 0.9639 ± 0.0093

AATGTAAAAG
switch fluorescence ratio: 0.988 ± 0.039

TTATTGTTTA
switch fluorescence ratio: 0.99 ± 0.029

ATCGGGGTCA
switch fluorescence ratio: 1.01 ± 0.027

ACGGGGGGGG
switch fluorescence ratio: 1.02 ± 0.048

CGTGCTAGAA
switch fluorescence ratio: 1.0154 ± 0.001

GGGGCAGGTA
switch fluorescence ratio: 1.04 ± 0.047

CACACAGTAT
switch fluorescence ratio: 1.0721 ± 0.00011

AATTATCGAC
switch fluorescence ratio: 1 ± 0.031

GAACTTTTTA
switch fluorescence ratio: 0.981 ± 0.011

GTTGACCGGT
switch fluorescence ratio: 1 ± 0.016

TTTTATAAAT
switch fluorescence ratio: 1.02 ± 0.0071

ATTGAGAGCA
switch fluorescence ratio: 0.985 ± 0.021

ACCCCGGTCG
switch fluorescence ratio: 1.167 ± 0.0062

GTTGTGGGTG
switch fluorescence ratio: 1.03 ± 0.018

CTGATCAGCA
switch fluorescence ratio: 1.03 ± 0.04

AATGCTTCTC
switch fluorescence ratio: 1.03

CTGCTAGATG
switch fluorescence ratio: 0.983 ± 0.051

GCCGGGTTAT
switch fluorescence ratio: 1.03 ± 0.079

TTGCTACCAC
switch fluorescence ratio: 1.07 ± 0.036

GAGATAGAGA
switch fluorescence ratio: 1.02 ± 0.03

TCGAAGGGCT
switch fluorescence ratio: 1.016 ± 0.01

TGTGAGGCTT
switch fluorescence ratio: 1.03 ± 0.015

TTTTAAACAC
switch fluorescence ratio: 1.07 ± 0.11

TCTGGGAAGA
switch fluorescence ratio: 1.02 ± 0.044

CATTAATTGT
switch fluorescence ratio: 1.025 ± 0.0034

GTGCTTCTTA
switch fluorescence ratio: 0.992 ± 0.025

TTGAGTTTTT
switch fluorescence ratio: 0.987 ± 0.024

TTACGTTTGG
switch fluorescence ratio: 1.02 ± 0.025

TCTGTAAGGC
switch fluorescence ratio: 1.39 ± 0.066

ATCTGGGGTT
switch fluorescence ratio: 1.04 ± 0.015

TTAAGTAGTG
switch fluorescence ratio: 0.98 ± 0.014

GGGGGGGTGC
switch fluorescence ratio: 1.02 ± 0.049

AGGCGGAAGT
switch fluorescence ratio: 1.014 ± 0.0031

TGGCAGAGGG
switch fluorescence ratio: 1 ± 0.044

TAACAACGTA
switch fluorescence ratio: 1.066 ± 0.0064

GGGGGCCGCT
switch fluorescence ratio: 1.02 ± 0.036

TGCTTCAGGG
switch fluorescence ratio: 1.03 ± 0.014

ACGGCCTTAT
switch fluorescence ratio: 0.991 ± 0.033

TCTTCTGGCT
switch fluorescence ratio: 1.02 ± 0.019

AGACCTCATA
switch fluorescence ratio: 1.02 ± 0.021

ATAGTAATCT
switch fluorescence ratio: 0.993 ± 0.056

CGAATATAAA
switch fluorescence ratio: 0.994 ± 0.054

CGGGAGGGAG
switch fluorescence ratio: 1 ± 0.05

GGAATTCTCC
switch fluorescence ratio: 1.21 ± 0.03
